Measurements taken from publication PMC6553528, “An Interaction Network of the Human SEPT9 Established by Quantitative Mass Spectrometry” (G3: Genes|Genomes|Genetics, 2019).

T1: 6his-SEPT9 (human, UniProt Q9UHD8 2-586)
T1 construct: SEPT9 isoform 1 (SEPT9_i1), human; PCR amplified from the GFP-SEPT9_i1 plasmid and cloned into the in-house plasmid pES; The forward primer reads ENLYFQG (a TEV site, surmised) followed by KKSYSGG, i.e. SEPT9 from its second codon; the reverse primer ends with PEAPEM and stop codons; also called 6his-tagged SEPT9; 6his tagged SEPT9; source: E. coli, purified (IMAC, approx. 70% purity; desalted …)
T1 sequence (looked up): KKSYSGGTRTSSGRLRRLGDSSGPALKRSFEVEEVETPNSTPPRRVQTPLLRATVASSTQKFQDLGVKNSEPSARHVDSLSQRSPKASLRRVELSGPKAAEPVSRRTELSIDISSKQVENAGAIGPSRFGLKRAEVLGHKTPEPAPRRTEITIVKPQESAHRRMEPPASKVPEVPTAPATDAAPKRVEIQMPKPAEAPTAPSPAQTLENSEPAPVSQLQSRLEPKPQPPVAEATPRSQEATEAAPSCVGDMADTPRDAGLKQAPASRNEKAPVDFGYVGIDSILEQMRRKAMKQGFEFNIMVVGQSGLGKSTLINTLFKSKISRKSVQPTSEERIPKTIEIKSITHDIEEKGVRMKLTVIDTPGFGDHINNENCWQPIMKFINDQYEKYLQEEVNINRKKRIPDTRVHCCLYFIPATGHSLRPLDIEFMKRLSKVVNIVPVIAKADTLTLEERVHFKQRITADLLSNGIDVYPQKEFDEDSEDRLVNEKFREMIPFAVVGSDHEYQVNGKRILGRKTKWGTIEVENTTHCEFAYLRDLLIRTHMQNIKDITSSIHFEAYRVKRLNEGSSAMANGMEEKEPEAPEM


Target: T1, 6his-SEPT9
Assay: pull-down; GST fusion proteins immobilized on Glutathione Sepharose from the crude extract, incubated with 2 µM 6his-SEPT9 for 1 h in PBS; Western blot with anti-6his and anti-GST
Conditions: both partners purified

binding result	Binder
binds	GST-MYO1C_(809-1063) (domain or fragment, human, UniProt O00159 809-1063, looked up, Unconventional myosin-Ic (MYO1C), C-terminal tail fragment, amino acids 809-1063, amplified from cDNA of 1306 fibroblast mRNA; Cloned in pGEX2T; also called C-terminal tail fragment of MYO1C; source: E. coli, immobilized on Glutathione Sepharose from the crude extract; not shown: GST, N-terminal, kept) LDHVRTSFLLNLRRQLPQNVLDTSWPTPPPALREASELLRELCIKNMVWKYCRSISPEWKQQLQQKAVASEIFKGKKDNYPQSVPRLFISTRLGTDEISPRVLQALGSEPIQYAVPVVKYDRKGYKPRSRQLLLTPNAVVIVEDAKVKQRIDYANLTGISVSSLSDSLFVLHVQRADNKQKGDVVLQSDHVIETLTKTALSANRVNSININQGSITFAGGPGRDGTIDFTPGSELLITKAKNGHLAVVAPRLNSR
binds	GST-MYO6_(835-1294) (domain or fragment, UniProt Q9UM54 835-1294, looked up, Cloned in pGEX2T; also called C-terminal tail fragment of MYO6; source: E. coli, immobilized on Glutathione Sepharose from the crude extract; not shown: GST, N-terminal, kept) PRIDGLVKVGTLKKRLDKFNEVVSVLKDGKPEMNKQIKNLEISIDTLMAKIKSTMMTQEQIQKEYDALVKSSEELLSALQKKKQQEEEAERLRRIQEEMEKERKRREEDEKRRRKEEEERRMKLEMEAKRKQEEEERKKREDDEKRIQAEVEAQLARQKEEESQQQAVLEQERRDRELALRIAQSEAELISDEAQADLALRRSLDSYPVSKNDGTRPKMTPEQMAKEMSEFLSRGPAVLATKAAAGTKKYDLSKWKYAELRDTINTSCDIELLAACREEFHRRLKVYHAWKSKNKKRNTETEQRAPKSVTDYDFAPFLNNSPQQNPAAQIPARQREIEMNRQQRFFRIPFIRPADQYKDPQSKKKGWWYAHFDGPWIARQMELHPDKPPILLVAGKDDMEMCELNLEETGLTRKRGAEILPRQFEEIWERCGGIQYLQNAIESRQARPTYATAMLQSLLK
